Assay results as given in publication PMC4773433, “The Bub1–Plk1 kinase complex promotes spindle checkpoint signalling through Cdc20 phosphorylation” (Nature Communications, 2016).

Experiments:
His6-Cdc20^ΔN60 WT = target: T1, His6-Cdc20^ΔN60 WT (human, UniProt Q12834 61-499); test: pull-down; purified His6–Cdc20^ΔN60 WT or S92E immobilised on Ni-NTA beads, incubated with BubR1N and Mad2, 1 h at room temperature, five washes, immunoblotting; details: both partners purified
T1 construct: Cdc20, human, residues 61-499 (Cdc20^ΔN60); also called Cdc20 WT; recombinant Cdc20; source: Sf9, purified (Ni-NTA)
T1 sequence (Q12834 61-499, stated change not applied): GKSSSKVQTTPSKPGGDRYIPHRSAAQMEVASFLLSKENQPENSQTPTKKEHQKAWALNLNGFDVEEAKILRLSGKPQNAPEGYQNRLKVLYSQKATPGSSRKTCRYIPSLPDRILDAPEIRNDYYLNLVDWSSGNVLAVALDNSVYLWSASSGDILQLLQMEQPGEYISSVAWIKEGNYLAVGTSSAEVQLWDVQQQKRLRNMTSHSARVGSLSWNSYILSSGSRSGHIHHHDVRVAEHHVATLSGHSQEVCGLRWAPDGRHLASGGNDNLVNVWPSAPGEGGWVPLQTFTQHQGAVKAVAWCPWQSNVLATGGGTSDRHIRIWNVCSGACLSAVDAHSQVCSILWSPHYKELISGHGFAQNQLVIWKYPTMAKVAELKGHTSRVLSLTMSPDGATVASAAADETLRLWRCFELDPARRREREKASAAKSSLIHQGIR

His6-Cdc20^ΔN60 S92E = target: T2, His6-Cdc20^ΔN60 S92E (human, UniProt Q12834 61-499, S92E); test: as above; details: both partners purified
T2 construct: Cdc20, human, residues 61-499 (Cdc20^ΔN60), phospho-mimicking S92E; also called Cdc20 S92E; source: Sf9, purified (Ni-NTA)
T2 sequence (Q12834 61-499 S92E): as the sequence (Q12834 61-499, stated change not applied) above, with S32E counted along it

B1: BubR1 N-terminal fragment (BubR1N; residues 1–370) (domain or fragment, human, UniProt O60566 1-370, looked up)
chain: MAAVKKEGGALSEAMSLEGDEWELSKENVQPLRQGRIMSTLQGALAQESACNNTLQQQKRAFEYEIRFYTGNDPLDVWDRYISWTEQNYPQGGKESNMSTLLERAVEALQGEKRYYSDPRFLNLWLKLGRLCNEPLDMYSYLHNQGIGVSLAQFYISWAEEYEARENFRKADAIFQEGIQQKAEPLERLQSQHRQFQARVSRQTLLALEKEEEEEVFESSVPQRSTLAELKSKGKKTARAPIIRVGGALKAPSQNRGLQNPFPQQMQNNSRITVFDENADEASTAELSKPTVQPWIAPPMPRAKENELQAGPWNTGRSLEHRPRGNTASLIAVPAVLPSFTPYVEETARQPVMTPCKIEPSINHILSTRK
notes: source: bacteria, purified (Ni-NTA, TEV digestion, Resource Q, Superdex 200)
- binding result (His6-Cdc20^ΔN60 WT): binds
- binding result (His6-Cdc20^ΔN60 S92E): binds
